Laboratory results from US20230391862A1, “METHOD OF S[…] RESPONSE TO VECTOR-DELIVERED T[…]” (Scout Bio, Inc., priority 2020, published 2023).

How the values were obtained:
[1] = test system: anti-transgene product antibody (ATPA) response, anti-(anti-feNGF mAb) antibodies; test: Bridging immunoassay for anti-transgene product antibodies (ATPA) in cat serum after IM AAV; conditions: cats; for ATPA up to 98 days post AAV administration: mAb 2 mg/kg SC 14 days before AAV IM 2.5×10^11 gc/kg
Experimental: A bridging Immunoassay with acid dissociation was used to evaluate the presence of anti-(anti-feNGF mAb) antibodies in the cat serum. Samples were pre-treated with acid to disrupt any existing ATPA-feNGF mAb complexes before assessment in the bridging assay. Samples were diluted to 2.5% in 300 mM acetic acid to enable ATPA-feNGF mAb complex dissociation before analysis. Acidified samples were incubated for 40 min with shaking at ambient temperature. 25 μl of the acidified samples were transferred to wells of a 96 well plate containing 90 μL of master-mix reagent (0.125 μg/mL of biotinylated feNGF mAb and 0.125 μg/mL of ruthenylated feNGF mAb with 1% Meso Scale Discovery (MSD) Blocker A in PBS-T) and 11 μL 1.2M Tris solution (pH 9.5). Acidified samples plus master-mix reagents were incubated at ambient temperature in the dark for 60 min with shaking. Simultaneously, Streptavidin-coated MSD plates were blocked for 60 min at ambient temperature with 200 μL/well of PBS-T buffer containing 3% (MSD) Blocker A. The Streptavidin-coated MSD plates were then washed and 25 μl of the acidified sample plus master-mix reagent were transferred to the plates which were then incubated at ambient temperature in the dark for 60-90 min with shaking. The MSD plates were washed and then 150 μL of 2×MSD Read T-Buffer was added per well before the plates were read on an MSD MESO QuickPlex SQ 120 instrument. The resulting response was recorded as Relative Light Units (RLU).
A bridging immunoassay with acid dissociation was used to evaluate the presence of anti-(anti-feNGF mAb) antibodies in the cat serum at timepoints when the circulating levels of drug were at the lowest (pre-dose). Samples were pre-treated with acid to disrupt any existing ADA-feNGF mAb complexes before assessment in the bridging assay. Briefly, samples were diluted to 2.5% in 300 mM acetic acid to enable ADA-drug complex dissociation before analysis. Acidified samples were incubated for 40 min with shaking at ambient temperature. 25 μl of the acidified samples were transferred to wells of a 96 well plate containing 90 μL of master-mix reagent (0.125 μg/mL of biotinylated feNGF mAb and 0.125 μg/mL of ruthenylated feNGF mAb with 1% Meso Scale Discovery (MSD) Blocker A in PBS-T) and 11 μL 1.2M Tris solution (pH 9.5). Acidified samples plus master-mix reagents were incubated at ambient temperature in the dark for 60 min with shaking. Simultaneously, Streptavidin-coated MSD plates were blocked for 60 min at ambient temperature with 200 μL/well of PBS-T buffer containing 3% (MSD) Blocker A.
The Streptavidin-coated MSD plates were then washed and 25 ul of the acidified sample plus master-mix reagent were transferred to the plates which were then incubated at ambient temperature in the dark for 60-90 min with shaking. The MSD plates were washed, 150 μL of 2×MSD Read T-Buffer was added per well before the plates were read on an MSD MESO QuickPlex SQ 120 instrument. The resulting response was recorded as Relative Light Units (RLU).
A bridging immunoassay with acid dissociation was used to evaluate the presence of anti-(anti-feNGF mAb) antibodies in the cat serum at timepoints when the circulating levels of drug were at the lowest (pre-dose). Samples were pre-treated with acid to disrupt any existing ADA-feNGF mAb complexes before assessment in the bridging assay. Briefly, samples were diluted to 2.5% in 300 mM acetic acid to enable ADA-drug complex dissociation before analysis. Acidified samples were incubated for 40 min with shaking at ambient temperature.

[2] = Serum level of feNGF mAb in cats by NGF-binding ELISA; format: in vivo, cat
Experimental: The concentration of FeNGF mAb in cat serum was determined using an NGF-binding ELISA. ELISA plates were coated with 0.1 μg/ml muNGF and blocked with PBS/0.05% Tween 20/1% BSA. muNGF coated wells were incubated for 1 h at room temperature with serum diluted in PBS/0.05% Tween 20/1% BSA in the amount of 100 μl/well. FeNGF antibody concentrations ranging from 1.56 ng/ml to 100 ng/ml were used to establish a binding curve. Well plates were washed following incubation and were then incubated with a 1/10,000 dilution of goat anti-feline IgG-HRP in PBS/0.05% Tween 20/1% BSA. Plates were washed with PBS/0.05% Tween 20 and developed by the addition of 3,3′,5,5′-tetramethylbenzidine (TMB) substrate. Development was stopped by the addition of 2M H2SO4 and the absorbance read at 450 nm and background was subtracted from the resulting reading.
The concentration of feline anti-NGF mAb in cat serum was determined using an NGF-binding ELISA. […] Development was stopped by the addition of 2M H2SO4 and absorbance read at 450 nm and background was subtracted.
The concentration of feline anti-NGF mAbs in cat serum was determined using an NGF-binding ELISA. […] Development was stopped by the addition of 2M H2SO4 and absorbance read at 450 nm and background was subtracted.

Molecule | ATPA up to 98 days post AAV administration ([1]; Example 7) | ATPA response after pre-treatment ([1]; pre-treatment, then AAV.CB7.feNGF IM 2.5×10^11 gc/kg at day 0 (FIG. 4E-4H)) | expression of feNGF mAb in the serum ([2]; mAb 2 mg/kg SC day −14, then AAV.CB7.feNGF IM 2.5×10^11 gc/kg day 0 (FIG. 4B)) | ATPA signal following the recombinant mAb administration ([1]; Example 7, V5_1 pre-treatment group, did not persist, did not affect transgene expression (FIG. 10F)) | treatment induced ATPA response ([1]; Example 8, mAb 2 mg/kg SC day −14, then high dose of AAV (1×10^13 gc/cat)) | treatment-emergent immunogenicity up to 56 days post AAV administration ([1]; Example 8, mAb 2 mg/kg SC day −14, then medium dose of AAV (1×10^12 gc/cat)) | detectable serum antibody ([2]; Example 8, high dose (1×10^13 gc/cat) cohort, the animal with ATPA response)
feNGF mAb: recombinant purified felinized anti-NGF monoclonal antibody, clone JCV4, SEQ ID NOs: 1 and 2 (antibody, V domains shown, felinized anti-NGF antibody VH Sequence; felinized anti-NGF antibody VL Sequence) VH: QVQLMESGADLVQPSESLRLTCVASGLSLTNNNVNWVRQAPGKGLEWMGGVWAGGATDYNSALKSRLTITRDTSKNTVFLQMHSLQSEDTATYYCARDGGYSSSTLYAMDAWGQGTTVTVSA VL: DIEMTQSPLSLSATPGETVSISCRASEDIYNALAWYLQKPGRSPRLLIYNTDTLHTGVPDRFSGSGSGTDFTLKISRVQTEDVGVYFCQHYFHYPRTFGQGTKLELK | no evidence of ATPA was observed | no ATPA response was observed | strong, sustained expression of feNGF mAb was observed | – | – | – | –
fNGFV5_1 mAb: purified felinized anti-NGF monoclonal antibody, clone V5_1, SEQ ID NOs: 2 and 5 (antibody, V domains shown, felinized anti-NGF antibody VL Sequence; felinized anti-NGF antibody (V5_1) VH Sequence) VL: DIEMTQSPLSLSATPGETVSISCRASEDIYNALAWYLQKPGRSPRLLIYNTDTLHTGVPDRFSGSGSGTDFTLKISRVQTEDVGVYFCQHYFHYPRTFGQGTKLELK VH: QVQLVESGGDLVQPGGSLRLTCVASGFSLTNNNVNWVRQAPGKGLEWMGGVWAGGATDYNSAVKSRLTITRDTSKNTVFLQMHSLQSEDTATYYCARDGGYSSSTLYAMDAWGQGTTVTVSA | no evidence of ATPA was observed | – | – | low, transient ATPA signal was observed in one animal | A single treatment induced ATPA response was observed | no evidence of treatment-emergent immunogenicity was observed | sudden loss in detectable serum antibody
